Among the data in patent publication US20110263827A1 (AbbVie / Abbott, published 2011) are EC50 values, retold here.

The target in experiment [1] is T1, ErbB3 (UniProt P21860 20-643, limits assumed, biotinylated).
T1 construct: ELISA antigen
Nature of the experiment: direct bind ELISA, C-term VD.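 Also: ELISA with antibody or DVD-Ig preparations applied to target antigen-coated plates for 1 h at room temperature, TMB colour development, absorbance read at 450 nm.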 For orientation: An ELISA detects its analyte on a solid surface through an enzyme-linked reagent.

Experiment [2] deals with T2, EGFR (UniProt P00533 25-645, limits assumed, biotinylated).
T2 construct: ELISA antigen; construct not described
Nature of the experiment: direct bind ELISA, N-term VD.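 Also: antibody or DVD-Ig preparations bound to immobilized target antigen on ELISA plates, 1 h at room temperature, TMB detection read as absorbance at 450 nm.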

B1: DVD771 (bispecific antibody)
VH: QVQLQESGPGLVKPSQTLSLTCTVSGYSISSDFAWNWIRQPPGKGLEWMGYISYSGNTRYQPSLKSRITISRDTSKNQFFLKLNSVTAADTATYYCVTAGRGFPYWGQGTLVTVSSASTKGPSVFPLAPEVQLVESGGGLVQPGGSLRLSCAASGFTFSIYSMNWVRQAPGKGLEWVSYISSSSSTIYYADSVKGRFTISRDNAKNSLYLQMNSLRDEDTAVYYCARDRGDFDAFDIWGQGTMVTVSS
VL: DIQMTQSPSSMSVSVGDRVTITCHSSQDINSNIGWLQQKPGKSFKGLIYHGTNLDDGVPSRFSGSGSGTDYTLTISSLQPEDFATYYCVQYAQFPWTFGGGTKLEIKRTVAAPSVFIFPPDIQMTQSPSSLSASVGDRVTITCQASQDITNYLNWYQQKPGKAPKLLIYDASNLETGVPSRFSGSGSGTDFTFTISSLQPEDIATYNCQQCENFPITFGQGTRLEIKR
notes: DVD-Ig; HC L, LC L; variable parts only
As for B1, the concentration for a half-maximal effect (EC50) was 1.38 nM in experiment [1] and 4.43 nM in experiment [2].

B2: DVD787 (bispecific antibody)
VH: QVQLQESGPGLVKPSQTLSLTCTVSGYSISSDFAWNWIRQPPGKGLEWMGYISYSGNTRYQPSLKSRITISRDTSKNQFFLKLNSVTAADTATYYCVTAGRGFPYWGQGTLVTVSSASTKGPSVFPLAPEVQLLESGGGLVQPGGSLRLSCAASGFTFSHYVMAWVRQAPGKGLEWVSSISSSGGWTLYADSVKGRFTISRDNSKNTLYLQMNSLRAEDTAVYYCTRGLKMATIFDYWGQGTLVTVSS
VL: DIQMTQSPSSMSVSVGDRVTITCHSSQDINSNIGWLQQKPGKSFKGLIYHGTNLDDGVPSRFSGSGSGTDYTLTISSLQPEDFATYYCVQYAQFPWTFGGGTKLEIKRTVAAPSVFIFPPQSALTQPASVSGSPGQSITISCTGTSSDVGSYNVVSWYQQHPGKAPKLIIYEVSQRPSGVSNRFSGSKSGNTASLTISGLQTEDEADYYCCSYAGSSIFVIFGGGTKVTVLG
notes: as for B1
In the case of B2, the EC50 in experiment [1] worked out at 14.4 nM; in experiment [2] it was 3.78 nM.

B3: DVD769 (bispecific antibody)
VH: QVQLQESGPGLVKPSQTLSLTCTVSGYSISSDFAWNWIRQPPGKGLEWMGYISYSGNTRYQPSLKSRITISRDTSKNQFFLKLNSVTAADTATYYCVTAGRGFPYWGQGTLVTVSSASTKGPSVFPLAPQVQLQQWGAGLLKPSETLSLTCAVYGGSFSGYYWSWIRQPPGKGLEWIGEINHSGSTNYNPSLKSRVTISVETSKNQFSLKLSSVTAADTAVYYCARDKWTWYFDLWGRGTLVTVSS
VL: DIQMTQSPSSMSVSVGDRVTITCHSSQDINSNIGWLQQKPGKSFKGLIYHGTNLDDGVPSRFSGSGSGTDYTLTISSLQPEDFATYYCVQYAQFPWTFGGGTKLEIKRTVAAPSVFIFPPDIEMTQSPDSLAVSLGERATINCRSSQSVLYSSSNRNYLAWYQQNPGQPPKLLIYWASTRESGVPDRFSGSGSGTDFTLTISSLQAEDVAVYYCQQYYSTPRTFGQGTKVEIKR
notes: as for B1
As to B3, the EC50 turned out to be 8.23 nM in experiment [1] and 3.59 nM in experiment [2].

B4: DVD327 (bispecific antibody)
VH: QVQLQESGPGLVKPSQTLSLTCTVSGYSISSDFAWNWIRQPPGKGLEWMGYISYSGNTRYQPSLKSRITISRDTSKNQFFLKLNSVTAADTATYYCVTAGRGFPYWGQGTLVTVSSASTKGPQVQLQQWGAGLLKPSETLSLTCAVYGGSFSGYYWSWIRQPPGKGLEWIGEINHSGSTNYNPSLKSRVTISVETSKNQFSLKLSSVTAADTAVYYCARDKWTWYFDLWGRGTLVTVSS
VL: DIQMTQSPSSMSVSVGDRVTITCHSSQDINSNIGWLQQKPGKSFKGLIYHGTNLDDGVPSRFSGSGSGTDYTLTISSLQPEDFATYYCVQYAQFPWTFGGGTKLEIKRTVAAPDIEMTQSPDSLAVSLGERATINCRSSQSVLYSSSNRNYLAWYQQNPGQPPKLLIYWASTRESGVPDRFSGSGSGTDFTLTISSLQAEDVAVYYCQQYYSTPRTFGQGTKVEIKR
notes: DVD-Ig; HC S, LC S; variable parts only
As to B4, the concentration giving a half-maximal response (EC50) in experiment [1] was determined as 485 nM; in experiment [2] it was 3.98 nM.

What is called EC50 is the concentration at which the effect is half-maximal. Low values mean an effect from little substance, high ones a need for much substance.
